The target in this experiment is SARS-CoV-2 Omicron spike protein (SARS-CoV-2 B.1.1529 spike protein) (SARS-CoV-2 (Omicron)) (UniProt P0DTC2). Kind of experiment: SPR. On the technique in general: SPR reads the build-up and loss of mass on a sensor chip optically.

For orientation: Kd means the concentration at which binding is half-saturated. A low value points to a tighter complex.

As to “Urtica dioica agglutinin (UDA) (natural protein)”, the Kd turned out to be 11 nM.

The record behind these values is publication PMC9468479.
